# B1: d-lys6-GnRH-GMBS-plant-derived mature PAP (protein)
# chain: VNTIIYNVGSTTISKYATFLNDLRNEAKDPSLKCYGIPMLPNTNTNPKYVLVELQGSNKKTITLMLRRNNLYVMGYSDPFETNKCRYHIFNDISGTERQDVETTLCPNANSRVSKNINFDSRYPTLESKAGVKSRSQVQLGIQILDSNIGKISGVMSFTEKTEAEFLLVAIQMVSEAARFKYIENQVKTNFNRAFNPNPKVLNLQETWGKISTAIHDAKNGVLPKPLELVDASGAKWIVLRVDEIKPDVALLNYVGGSCQTT
# peptide: EHWSYKLRP
# modifications: Hp-Glu at position 1 (blocked N-terminus); D-Lys at position 6, carrying the GMBS linker; C-terminal ethyl-amide (Et-NH2) replacing Gly 10; bound through the GMBS linker to d-lys6-GnRH; site of attachment not stated
# What was measured:
# [1] = target: gonadotropin releasing hormone receptor; test: competition with I125-d-Lys6-GnRH on pituitary membranes; competitor at 28.24 nM
# [2] = target: gonadotropin releasing hormone receptor; test: competition with I125-d-Lys6-GnRH on pituitary membranes; competitor at 441.18 nM
# [3] = target: gonadotropin releasing hormone receptor; test: competition with I125-d-Lys6-GnRH on pituitary membranes; competitor at 176.47 nM
# [4] = target: gonadotropin releasing hormone receptor; test: competition with I125-d-Lys6-GnRH on pituitary membranes; competitor at 70.59 nM
# [5] = target: gonadotropin releasing hormone receptor; test: competition with I125-d-Lys6-GnRH on pituitary membranes; competitor at 1102.94 nM
# [6] = target: gonadotropin releasing hormone receptor; test: competitive radio-immuno receptor binding assay, pituitary membranes, displacement of I125-d-Lys6-GnRH
# [7] = target: gonadotropin releasing hormone receptor; test: competition with I125-d-Lys6-GnRH on pituitary membranes; competitor at 1136.36 nM
# [8] = target: gonadotropin releasing hormone receptor; test: competition with I125-d-Lys6-GnRH on pituitary membranes; competitor at 181.82 nM
# [9] = target: gonadotropin releasing hormone receptor; test: competition with I125-d-Lys6-GnRH on pituitary membranes; competitor at 454.55 nM
# [10] = target: gonadotropin releasing hormone receptor; test: competition with I125-d-Lys6-GnRH on pituitary membranes; competitor at 29.09 nM
# [11] = target: gonadotropin releasing hormone receptor; test: competition with I125-d-Lys6-GnRH on pituitary membranes; competitor at 72.73 nM
# [12] = target: gonadotropin releasing hormone receptor; test: competition with I125-d-Lys6-GnRH on pituitary membranes; competitor at 80 nM
# [13] = target: gonadotropin releasing hormone receptor; test: competition with I125-d-Lys6-GnRH on pituitary membranes; competitor at 200 nM
# [14] = target: gonadotropin releasing hormone receptor; test: competition with I125-d-Lys6-GnRH on pituitary membranes; competitor at 500 nM
# [15] = target: gonadotropin releasing hormone receptor; test: competition with I125-d-Lys6-GnRH on pituitary membranes; competitor at 32 nM
# [16] = target: gonadotropin releasing hormone receptor; test: competition with I125-d-Lys6-GnRH on pituitary membranes; competitor at 1250 nM
molecule,measurement,setting,value
d-lys6-GnRH-GMBS-rPAP (from UniProt P10297 23-285),read-out of the competitive receptor binding assay (unit not given),[1],75
same,read-out of the competitive receptor binding assay (unit not given),[2],34
same,read-out of the competitive receptor binding assay (unit not given),[3],49.4
same,read-out of the competitive receptor binding assay (unit not given),[4],78.2
same,read-out of the competitive receptor binding assay (unit not given),[5],9.24
same,IC50,[6],70 to 200 nM
non-conjugated recombinant PAP (not bound to d-lys6-GnRH-GMBS) (from UniProt P10297 23-285),read-out of the competitive receptor binding assay (unit not given),[7],74.8
same,read-out of the competitive receptor binding assay (unit not given),[8],96.4
same,read-out of the competitive receptor binding assay (unit not given),[9],98.7
same,read-out of the competitive receptor binding assay (unit not given),[10],91.5
same,read-out of the competitive receptor binding assay (unit not given),[11],111
B1,read-out of the competitive receptor binding assay (unit not given),[12],37.5
same,read-out of the competitive receptor binding assay (unit not given),[13],10.1
same,read-out of the competitive receptor binding assay (unit not given),[14],3.38
same,read-out of the competitive receptor binding assay (unit not given),[15],65.5
same,read-out of the competitive receptor binding assay (unit not given),[16],0
same,IC50,[6],70 to 200 nM
